Source: PMC314469, “Protein Interaction Networks by Proteome Peptide Scanning” (PLoS Biology, 2004)

T1: Myo5 SH3 (MYO5_YEAST), Q04439
T1 chain: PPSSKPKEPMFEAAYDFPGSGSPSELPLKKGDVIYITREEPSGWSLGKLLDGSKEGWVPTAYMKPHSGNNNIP

T2: Yhr016c SH3 (YSC84_YEAST), P32793
T2 chain: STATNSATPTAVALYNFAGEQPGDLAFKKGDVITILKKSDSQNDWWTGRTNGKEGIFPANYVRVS

T3: Rvs167 SH3 (RV167_YEAST), P39743
T3 chain: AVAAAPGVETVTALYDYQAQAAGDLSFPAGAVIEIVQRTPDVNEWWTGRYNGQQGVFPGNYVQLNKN

T4: Yfr024 SH3 (LSB3_YEAST), P43603
T4 chain: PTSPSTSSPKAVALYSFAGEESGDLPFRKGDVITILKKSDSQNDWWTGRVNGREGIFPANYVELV

T5: Boi2 SH3 (BOI2_YEAST), P39969
T5 chain: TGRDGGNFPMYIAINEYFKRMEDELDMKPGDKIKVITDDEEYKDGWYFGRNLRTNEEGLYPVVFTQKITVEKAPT

T6: Boi1 SH3 (BOI1_YEAST), P38041
T6 chain: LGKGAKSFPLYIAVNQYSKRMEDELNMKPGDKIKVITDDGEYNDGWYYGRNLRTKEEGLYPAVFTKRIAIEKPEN


These binders were tested against Sho1 SH3 (SHO1_YEAST), P40073 (assay: SPOT array).
Chain of Sho1 SH3 (SHO1_YEAST), P40073 (P40073 295-366): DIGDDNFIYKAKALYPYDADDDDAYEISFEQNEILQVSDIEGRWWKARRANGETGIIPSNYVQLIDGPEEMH

Point of comparison: RRRTRLRPPTPLSQ [YPL269W 616-629], normalised SPOT signal, Boehringer light units (BLU); mean over the file's lines of this peptide 76.1. Against it:
- RRIRKEHPGEPNVI [YOR090C 334-347] — higher, 123
- RSRSKKDPGIPSNF [YER006W 41-54] — higher, 118
- RRKLRTVPGVPLIH [YOR004W 127-140] — higher, 85.3
- RTPSKPDPMEPENT [YOR196C 194-207] — lower, 18
- RRLKKNLPSLPTPV [YOR127W 138-151] — higher, 27000
- RTFFKLPPNLPEAE [YHR017W 94-107] — higher, 154

Molecular target: T1, Myo5 SH3 (MYO5_YEAST), Q04439
Assay: SPOT array

Point of comparison: RRLKKNLPSLPTPV [YOR127W 138-151], normalised SPOT signal, Boehringer light units (BLU); mean over the file's lines of this peptide 824. Against it:
- RRIRKEHPGEPNVI [YOR090C 334-347] — lower, 308
- RSRSKKDPGIPSNF [YER006W 41-54] — lower, 800
- RRKLRTVPGVPLIH [YOR004W 127-140] — higher, 2010
- RTPSKPDPMEPENT [YOR196C 194-207] — lower, 187
- RTFFKLPPNLPEAE [YHR017W 94-107] — higher, 2610
- RRRTRLRPPTPLSQ [YPL269W 616-629] — higher, 1510

Molecular target: T2, Yhr016c SH3 (YSC84_YEAST), P32793
Assay: SPOT array

Point of comparison: RRIRKEHPGEPNVI [YOR090C 334-347], normalised SPOT signal, Boehringer light units (BLU); mean over the file's lines of this peptide 60.5. Against it:
- RSRSKKDPGIPSNF [YER006W 41-54] — lower, 52.3
- RRKLRTVPGVPLIH [YOR004W 127-140] — higher, 772
- RTPSKPDPMEPENT [YOR196C 194-207] — lower, 21.1
- RRLKKNLPSLPTPV [YOR127W 138-151] — lower, 50.6
- RTFFKLPPNLPEAE [YHR017W 94-107] — lower, 32.8
- RRRTRLRPPTPLSQ [YPL269W 616-629] — higher, 104

Molecular target: T3, Rvs167 SH3 (RV167_YEAST), P39743
Assay: SPOT array

Point of comparison: RSRSKKDPGIPSNF [YER006W 41-54], normalised SPOT signal, Boehringer light units (BLU); mean over the file's lines of this peptide 159. Against it:
- RRIRKEHPGEPNVI [YOR090C 334-347] — lower, 106
- RRKLRTVPGVPLIH [YOR004W 127-140] — higher, 6330
- RTPSKPDPMEPENT [YOR196C 194-207] — lower, 19.3
- RRLKKNLPSLPTPV [YOR127W 138-151] — higher, 280
- RTFFKLPPNLPEAE [YHR017W 94-107] — higher, 204
- RRRTRLRPPTPLSQ [YPL269W 616-629] — higher, 423

Molecular target: T4, Yfr024 SH3 (LSB3_YEAST), P43603
Assay: SPOT array

Point of comparison: RRIRKEHPGEPNVI [YOR090C 334-347], normalised SPOT signal, Boehringer light units (BLU); mean over the file's lines of this peptide 570. Against it:
- RSRSKKDPGIPSNF [YER006W 41-54] — lower, 360
- RRKLRTVPGVPLIH [YOR004W 127-140] — higher, 2640
- RTPSKPDPMEPENT [YOR196C 194-207] — lower, 78.9
- RRLKKNLPSLPTPV [YOR127W 138-151] — lower, 395
- RTFFKLPPNLPEAE [YHR017W 94-107] — higher, 1050
- RRRTRLRPPTPLSQ [YPL269W 616-629] — higher, 819

Molecular target: T5, Boi2 SH3 (BOI2_YEAST), P39969
Assay: SPOT array

Point of comparison: RSRSKKDPGIPSNF [YER006W 41-54], normalised SPOT signal, Boehringer light units (BLU); mean over the file's lines of this peptide 6.9. Against it:
- RRIRKEHPGEPNVI [YOR090C 334-347] — higher, 9
- RRKLRTVPGVPLIH [YOR004W 127-140] — higher, 20.1
- RTPSKPDPMEPENT [YOR196C 194-207] — higher, 35.4
- RRLKKNLPSLPTPV [YOR127W 138-151] — higher, 41.1
- RTFFKLPPNLPEAE [YHR017W 94-107] — lower, 5.1
- RRRTRLRPPTPLSQ [YPL269W 616-629] — higher, 41.1

Molecular target: T6, Boi1 SH3 (BOI1_YEAST), P38041
Assay: SPOT array

Point of comparison: RTPSKPDPMEPENT [YOR196C 194-207], normalised SPOT signal, Boehringer light units (BLU); mean over the file's lines of this peptide 28.1. Against it:
- RRIRKEHPGEPNVI [YOR090C 334-347] — higher, 920
- RSRSKKDPGIPSNF [YER006W 41-54] — higher, 585
- RRKLRTVPGVPLIH [YOR004W 127-140] — higher, 89
- RRLKKNLPSLPTPV [YOR127W 138-151] — higher, 1760
- RTFFKLPPNLPEAE [YHR017W 94-107] — higher, 220
- RRRTRLRPPTPLSQ [YPL269W 616-629] — higher, 137
